The source of these data is patent publication US6001823A, “Treatment or prophylaxis of diseases caused by pilus-forming bacteria” (priority 1995, dated 1999).

The test deals with HB101/pPAP37. The test can be described thus: Hemagglutination titer of PapD mutants. The test is classed as cell-based, E. coli. The settings on record: induction with 0.01 mM IPTG; greatest bacterial dilution which still agglutinates erythrocytes. How it is done:
*The hemagglutionation (HA) titer was quantitated after induction with
0.01 mM IPTG. The HA titer represents the greatest bacterial dilution
which still agglutinates erythrocytes. HB101/pPAP37 expressing wild type
PapD has an HA titer of 128.

B1: wild type PapD: wild type periplasmic chaperone PapD (protein, UniProt P15319 22-239, looked up)
Chaperone protein PapD: AVSLDRTRAVFDGSEKSMTLDISNDNKQLPYLAQAWIENENQEKIITGPVIATPPVQRLEPGAKSMVRLSTTPDISKLPQDRESLFYFNLREIPPRSEKANVLQIALQTKIKLFYRPAAIKTRPNEVWQDQLILNKVSGGYRIENPTPYYVTVIGLGGSEKQAEEGEFETVMLSPRSEQTVKSANYNTPYLSYINDYGGRPVLSFICNGSRCSVKKEK
The molecule B1 came in with an HA titer of 128.
